Patent US20140178293A1, “METHODS FOR IMAGING BONE PRECURSOR CELLS USING DUAL-LABELED IMAGING AGENTS TO DETECT MMP-9 POSITIVE CELLS” (BAYLOR COLLEGE OF MEDICINE, priority 2011, published 2014)
Read-outs that look alike come from different tables or passages of the source. Positions of bridges follow the written chain, without caps; N, C: chain ends. No end group written: not given here. *: point of attachment. DOTA = O=C(O)CN1CCN(CC(=O)O)CCN(CC(=O)*)CCN(CC(=O)O)CC1

Columns and labels:
[1] = aqueous solution, 785/830 nm, used as standard; cited from earlier work
[2] = in vitro stability of ^64Cu-M2 in PBS or 500-fold excess DTPA (radio-HPLC); assay type: physicochemical; conditions: room temperature, normalized to 100% at t=0
Method: (§1) After radiolabeling, 150 μl of ^64Cu-M2 was diluted in equal volumes of PBS or DTPA solution and kept at room temperature. Aliquots were taken at 0, 2, 6 and 24 hrs post-incubation and analyzed by radio-HPLC. To evaluate serum stability, 150 μl of ^64Cu-M2 was added to 150 μl of 50% mouse serum and incubated at 37° C. An 80 μl aliquot was taken at each of the above-mentioned time points and added to 160 μl ice-cold acetonitrile. The samples were centrifuged at 14,000 g for 5 min and the supernatant was collected and analyzed by radio-HPLC.

MMP-9 [3] = target: T1, MMP-9 (Mus musculus, UniProt P41245)
T1 sequence (P41245 108-730): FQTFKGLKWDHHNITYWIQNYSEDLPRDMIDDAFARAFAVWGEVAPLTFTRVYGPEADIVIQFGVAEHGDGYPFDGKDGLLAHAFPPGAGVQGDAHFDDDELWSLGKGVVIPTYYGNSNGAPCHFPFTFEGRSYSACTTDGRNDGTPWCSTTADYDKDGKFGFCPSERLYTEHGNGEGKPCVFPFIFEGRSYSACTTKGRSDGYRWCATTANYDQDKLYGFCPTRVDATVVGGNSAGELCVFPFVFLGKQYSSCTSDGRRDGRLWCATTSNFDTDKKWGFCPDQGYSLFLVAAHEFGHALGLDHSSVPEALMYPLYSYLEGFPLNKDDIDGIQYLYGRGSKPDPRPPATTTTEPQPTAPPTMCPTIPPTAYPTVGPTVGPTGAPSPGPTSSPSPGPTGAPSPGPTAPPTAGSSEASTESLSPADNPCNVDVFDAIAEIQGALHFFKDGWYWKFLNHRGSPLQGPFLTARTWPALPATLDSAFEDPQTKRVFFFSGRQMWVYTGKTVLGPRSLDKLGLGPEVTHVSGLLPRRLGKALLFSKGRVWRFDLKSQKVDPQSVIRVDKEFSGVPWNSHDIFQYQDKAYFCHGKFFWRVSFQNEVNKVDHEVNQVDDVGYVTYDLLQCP

MMP-9 [4] = target: T1, MMP-9; assay: in vivo NIR fluorescence imaging of ^64Cu-M2 in murine model of BMP-2 induced HO; set-up: injected intramuscularly into each hind limb quadriceps muscle of nonobese diabetic/severely compromised immunodeficient (NOD/SCID) mice; from tissue; host or cells: hind limb muscle of living NOD/SCID mice injected with AdBMP2- or Adempty-transduced human fibroblasts
Method: NIR fluorescence images were acquired using custom-built fluorescence imaging systems (Houston et al., 2005) 18 hours after intravenous administration of ^64Cu-M2. Briefly, a field of view was illuminated with 785 nm of light from a laser diode, outfitted with a convex lens and diffuser to create a uniform excitation field. The fluorescence was collected through holographic and interference filters placed before a Nikon camera lens. The images were finally captured by an electron-multiplying charge-coupled device camera (PhotonMax 512; Princeton Instruments, Princeton, N.J.) with 200 to 400 milliseconds of integration time. For acquisition of white-light images, the optical filters were removed, and a low-power lamp illuminated the subject. Image acquisition was accomplished by V++ software (Aukland, New Zealand).

in vitro = in vitro ADME; conditions: mouse, serum
Method: as §1

[5] = characterization of fluorescent properties; assay type: physicochemical
Method: Fluorescence intensity of the fluorophores was determined using the Fluorolog Tau-3 Spectrofluorometer (Horiba Jobin Yvon, Edison, N.J.) with excitation from a xenon arc lamp and absorbance was recorded using the DU-800 Spectrophotometer (Beckman Coulter, Brea Calif.). Fluorescence excitation and emission spectra were obtained at wavelengths of 785 and 830 nm respectively, with an integration time of 0.3 seconds for 1 μM solutions of IRDye 800CW, M2 and ^68Ga-M2 (n=4). Fluorescence measurements for IRDye 800CW and M2 were performed in aqueous solution under ambient conditions, whereas ^68Ga-M2 was prepared as previously described in NaOAc (pH 4) to provide an accurate representation of the ^68Ga-labeling scheme. Extinction coefficients were determined from the slope of absorbance at 785 nm as a function of the concentration of serial dilutions of each agent. Fluorescence quantum yield was determined by the comparative method of Williams et al. (Williams et al., 1983) using the quantum yield of ICGO (Φ=0.016) at 785/830 nm as a standard.

[6] = target: MMP-9 in mouse hind limb tissue (BMP-2 induced HO model, NOD/SCID mice) (mouse, UniProt P41245 108-730, limits assumed); assay: cell-based or functional assay
MMP-9 in mouse hind limb tissue (BMP-2 induced HO model, NOD/SCID mice), sequence (P41245 108-730 limits assumed): as the sequence (P41245 108-730) above

[7] = target: MMP-9 (AnaSpec, Fremont, Calif.) (UniProt P14780 107-707, limits assumed); assay: cell-based or functional assay
MMP-9 (AnaSpec, Fremont, Calif.), sequence (P14780 107-707 limits assumed): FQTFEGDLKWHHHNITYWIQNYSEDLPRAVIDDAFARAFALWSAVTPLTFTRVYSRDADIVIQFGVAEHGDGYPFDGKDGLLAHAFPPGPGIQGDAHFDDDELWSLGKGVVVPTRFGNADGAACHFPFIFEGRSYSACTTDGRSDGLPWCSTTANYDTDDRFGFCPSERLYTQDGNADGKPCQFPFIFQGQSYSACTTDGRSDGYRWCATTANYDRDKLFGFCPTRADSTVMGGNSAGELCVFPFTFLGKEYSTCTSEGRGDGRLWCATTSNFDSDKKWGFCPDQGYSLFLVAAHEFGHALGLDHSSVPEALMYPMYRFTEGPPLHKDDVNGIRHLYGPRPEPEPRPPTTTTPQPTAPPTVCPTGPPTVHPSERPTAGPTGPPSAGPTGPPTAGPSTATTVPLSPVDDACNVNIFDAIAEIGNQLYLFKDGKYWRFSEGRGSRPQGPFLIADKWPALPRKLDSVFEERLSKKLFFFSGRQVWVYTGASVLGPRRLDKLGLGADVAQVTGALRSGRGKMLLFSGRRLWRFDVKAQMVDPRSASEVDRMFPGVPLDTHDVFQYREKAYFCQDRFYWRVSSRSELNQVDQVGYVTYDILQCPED

[8] = 4 days post-implantation with 200x M1 as blocking (24 hours prior)
[9] = 1 μM solutions, IRDye 800CW and M2 aqueous, ^68Ga-M2 in NaOAc pH 4

Molecule: CC1(C)C(/C=C/C=C/C=C/C=C2\N(CCCCS(=O)(=O)O)c3ccc4ccccc4c3C2(C)C)=[N+](CCCCS(=O)(=O)[O-])c2ccc3ccccc3c21 [ICG, indocyanine green]
- quantum yield of standard [1]: 0.016

Molecule: CC(C)C[C@@H]1NC(=O)[C@H]([C@@H](C)O)NC(=O)[C@H](Cc2ccccc2)NC(=O)CNC(=O)[C@H](Cc2c[nH]c3ccccc23)NC(=O)[C@H](Cc2c[nH]cn2)NC(=O)[C@H](C)NC(=O)[C@@H](NC(=O)[C@H](CCCCNC(=O)CCCCC[N+]2=C(C=CC3=C(Oc4ccc(S(=O)(=O)O)cc4)C(=CC=C4N(CCCCS(=O)(=O)O)c5ccc(S(=O)(=O)O)cc5C4(C)C)CCC3)C(C)(C)c3cc(S(=O)(=O)[O-])ccc32)NC(=O)CN2CCN(CC(=O)O)CCN(CC(=O)O)CCN(CC(=O)O)CC2)CCCCNC(=O)C[C@@H](C(=O)O)NC1=O (single isomer, unassigned) [^64Cu-M2, metal not drawn]
- percentage of intact component ([2]; DTPA, 2 hrs): 97.8 ± 1.3%
- percentage of intact component ([2]; DTPA, 6 hrs): 97.7 ± 0.6%
- percentage of intact component ([2]; DTPA, 24 hrs): 96.4±1.1%
- percentage of intact component ([2]; PBS, 24 hrs): 98.9 ± 1.5%
- Target/background ratio (PET/CT) (MMP-9 [3]; 2 days post-implantation, 200 μCi, 6 nmol i.v.): 3.29±0.9
- Target/background ratio (PET/CT) (MMP-9 [3]; [8]): 1.44±0.66
- Target/background ratio (PET/CT) (MMP-9 [3]; 4 days post-implantation, 200 μCi, 6 nmol i.v.): 4.02±1.39
- Target/background ratio (PET/CT) (MMP-9 [3]; 6 days post-implantation, 200 μCi, 6 nmol i.v.): 3.41±0.51
- % injected dose/g (PET/CT) (MMP-9 [3]; NOD/SCID, mouse, in vivo, iv, 6 nmol): 0.61 ± 0.04 % injected dose/g
- whole-body distribution (MMP-9 [3]; mouse, in vivo, iv): slow clearance from circulation along with uptake in the liver and kidneys
- Target/background ratio (NIR) (MMP-9 [4]; 2 days post-implantation, 18 hours after i.v. administration): 1.13 ± 0.03
- Target/background ratio (NIR) (MMP-9 [4]; [8]): 1.13 ± 0.18
- Target/background ratio (NIR) (MMP-9 [4]; 4 days post-implantation, 18 hours after i.v. administration): 1.24 ± 0.05
- Target/background ratio (NIR) (MMP-9 [4]; 6 days post-implantation, 18 hours after i.v. administration): 1.10 ± 0.03
- remaining at 2 h (in vitro): 99.6 ± 0.6%
- remaining at 6 h (in vitro): 94.8 ± 0.6%
- remaining at 24 h (in vitro): 53.7 ± 3.7%

Molecule: CC1(C)C(=CC=C2CCCC(C=CC3=[N+](CCCCCC(=O)[O-])c4ccc(S(=O)(=O)[O-])cc4C3(C)C)=C2Oc2ccc(S(=O)(=O)[O-])cc2)N(CCCCS(=O)(=O)[O-])c2ccc(S(=O)(=O)[O-])cc21.[Na+].[Na+].[Na+].[Na+] [IRDye 800CW, reference compound]
- Emission maximum [5, 9]: 830 nm
- Excitation wavelength [5, 9]: 785 nm
- Quantum yield ([5]; 785/830 nm, relative to ICG (Φ=0.016)): 0.034
- Extinction coefficient ([5]; absorbance at 785 nm, serial dilutions, mean ± SD (n=4)): 181,458 ± 2,189 M^−1cm^−1

Molecule: (lactam 2,10) DOTA-KKAHWGFTLD ({DOTA}-KKAHWGFTLD; lactam 2-10) [M1]
- bone formation by μCT after blocking dose (MMP-9 [3]; 200-fold excess of M1, μCT after 7 days): still exhibited bone formation

B1: ^64Cu-M2 (peptide)
peptide: {DOTA}-KKAHWGFTLD
modifications: lactam 2-10; also: DOTA chelating 64Cu, IRDye 800CW conjugated through a reactive amine group
- Target/background ratio (NIR), day 2 post-implantation [6]: 1.13 ratio
- Target/background ratio (NIR), day 4 post-implantation [6]: 1.24 ratio
- Target/background ratio (NIR), day 4 with 200x M1 as blocking [6]: 1.13 ratio
- Target/background ratio (NIR), day 6 post-implantation [6]: 1.1 ratio
- Target/background ratio (PET/CT), day 2 post-implantation [6]: 3.29 ratio
- Target/background ratio (PET/CT), day 4 post-implantation [6]: 4.02 ratio
- Target/background ratio (PET/CT), day 4 with 200x M1 as blocking [6]: 1.44 ratio
- Target/background ratio (PET/CT), day 6 post-implantation [6]: 3.41 ratio

Molecule: {DOTA}-KKAHWGFTLD (lactam 2-10; also: IRDye 800CW conjugated through an amine, site not given here) [dual-conjugate M2 (M1 conjugated with IRDye 800CW)]
- inhibition of MMP-9 by gelatin zymography [7]: 10 fold decrease compared to M1
